Data from patent publication US20190389961A1 (INNATE PHARMA, published 2019).
Substitutions are numbered along the chain they refer to. Names may count otherwise.

Legend:
[1] = biological target: T1, human CD39 (vascular CD39, NTPDase1) expressed at the surface of cells (human, UniProt P49961 1-510); test: flow cytometry on Ramos lymphoma cells, first set of experiments
T1 construct: also called huCD39; CHO-huCD39
T1 sequence: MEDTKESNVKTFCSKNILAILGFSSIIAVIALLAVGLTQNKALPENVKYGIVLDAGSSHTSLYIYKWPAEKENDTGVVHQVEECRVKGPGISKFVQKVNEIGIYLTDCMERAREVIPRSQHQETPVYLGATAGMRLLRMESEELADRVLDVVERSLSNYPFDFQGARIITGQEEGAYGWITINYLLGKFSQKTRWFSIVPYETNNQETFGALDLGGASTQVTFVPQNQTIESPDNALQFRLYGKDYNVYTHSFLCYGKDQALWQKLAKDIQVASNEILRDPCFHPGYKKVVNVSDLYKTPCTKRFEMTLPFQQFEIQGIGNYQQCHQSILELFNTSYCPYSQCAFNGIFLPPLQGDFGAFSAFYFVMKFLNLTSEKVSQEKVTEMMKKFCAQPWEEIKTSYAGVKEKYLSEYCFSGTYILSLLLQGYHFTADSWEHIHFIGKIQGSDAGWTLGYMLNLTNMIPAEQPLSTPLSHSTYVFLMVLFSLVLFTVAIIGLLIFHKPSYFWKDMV
Experimental: (§1) Cells were incubated with various concentration of unlabeled anti-CD39 antibody from 30 μg/ml to 5×10-⁴ μg/ml, for 30 minutes at 4° C. After washes, cells were incubated with Goat anti-mouse H+L labeled secondary antibody for 30 min at 4° C.

[2] = biological target: T1, human CD39 (vascular CD39, NTPDase1) …; test: flow cytometry on Hek-293T cells expressing wild-type CD39 (panel WT); unstained (US) median 10,3; antibody concentration not shown
Experimental: (§2) Mutants were transfected in Hek-293T cells, as shown in the table 1, using numbering of SEQ ID NO: 1. […] Mutant 19 includes substitutions at residues R138, M139 and E142.
(§3) In order to define the epitopes of the further anti-CD39 antibodies of Example 5, they were tested for loss of binding to the panel of CD39 mutants as described in Example 1 and Table 1. Mutants were transfected in Hek-293T cells, as shown in the table 1, using numbering of SEQ ID NO: 1.Dose-ranges of test antibodies (10-2.5-0.625-0.1563-0.0391-0.0098-0.0024-0.0006 μg/ml) are tested on the 20 generated mutants by flow cytometry.

[3] = biological target: T2, human CD39 mutant 5 (human, UniProt P49961 1-510); test: flow cytometry on Hek-293T cells expressing CD39 mutant 5 (panel M5); unstained (US) median 8,98; antibody concentration not shown
T2 construct: Expressed on Hek-293T cells; also called M5
T2 chain: T1 sequence with Q96A, N99A, E143A, R147E
Experimental: as §2, §3

[4] = biological target: T1, human CD39 (vascular CD39, NTPDase1) …; test: cell-based or functional assay
[5] = biological target: T3, soluble recombinant human CD39-M2 extracellular domain protein (human, UniProt P49961 38-478, limits assumed); test: cell-based or functional assay
T3 sequence: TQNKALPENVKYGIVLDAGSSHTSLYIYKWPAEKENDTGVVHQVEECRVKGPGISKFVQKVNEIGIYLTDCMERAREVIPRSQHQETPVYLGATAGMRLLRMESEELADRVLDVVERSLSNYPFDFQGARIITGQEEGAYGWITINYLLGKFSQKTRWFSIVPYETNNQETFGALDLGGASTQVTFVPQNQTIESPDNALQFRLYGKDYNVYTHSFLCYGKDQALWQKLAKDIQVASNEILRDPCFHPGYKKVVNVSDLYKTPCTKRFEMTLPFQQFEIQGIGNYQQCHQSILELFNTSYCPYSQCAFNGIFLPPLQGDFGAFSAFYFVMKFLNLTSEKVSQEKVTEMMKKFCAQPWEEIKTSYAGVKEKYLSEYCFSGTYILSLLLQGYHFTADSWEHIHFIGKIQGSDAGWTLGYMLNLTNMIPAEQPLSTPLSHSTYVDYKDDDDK

[6] = biological target: T4, human CD39 mutant 15 (human, UniProt P49961 1-510); test: flow cytometry on Hek-293T cells expressing CD39 mutant 15 (panel M15); unstained (US) median 8,98; antibody concentration not shown
T4 construct: Expressed on Hek-293T cells; also called M15
T4 chain: T1 sequence with K87A, E100A, D107A
Experimental: as §2, §3

[7] = biological target: T1, human CD39 (vascular CD39, NTPDase1) …; test: flow cytometry titration on CHO-huCD39 cells
Experimental: as §1

B1: antibody I-394 (antibody, V domains shown)
VH: EVQLQQSGPELVKPGASVKMSCKASGYTFTDYNMHWVKQSHGRTLEWIGYIVPLNGGSTFNQKFKGRATLTVNTSSRTAYMELRSLTSEDSAAYYCARGGTRFAYWGQGTLVTVSA
VL: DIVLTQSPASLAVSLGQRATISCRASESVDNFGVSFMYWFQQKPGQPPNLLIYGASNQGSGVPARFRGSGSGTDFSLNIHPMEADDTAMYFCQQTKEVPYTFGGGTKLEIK
notes: Mouse variable regions; Produced in CHO with human IgG1 constant domains carrying L234A/L235E/G237A/A330S/P331S (Kabat EU numbering) and a human Ck constant domain
- EC50 [1]: 0.16 µg/mL
- Median : Comp-Alexa Fluor 647-A [2]: 3720
- Median : Comp-Alexa Fluor 647-A [3]: 1470
- IC50, inhibition of ATPase activity of CD39 on Ramos cells (Cell Titer Glo) [4]: 0.05 µg/mL
- IC50, inhibition of ATPase activity of soluble CD39 protein (Cell Titer Glo) [5]: 0.003 µg/mL
- Median : Comp-Alexa Fluor 647-A [6]: 6360
- EC50 (read off the curve) [7]: ~0.2 µg/mL
